# Values quoted from earlier work in US8633160B2, “Small molecule inhibitors of PDZ interactions” (Nono Inc., priority 2005, dated 2014).
# Assays:
# N-type calcium channel = N-type calcium channel (Homo sapiens, UniProt Q00975); conditions: data of U.S. Provisional Application No. 60/904,507; cited from earlier work
# [1] = test system: middle cerebral artery occlusion (MCAO) model of stroke; conditions: rat, previously tested; cited from earlier work
# Sequence of N-type calcium channel (Q00975 whole entry): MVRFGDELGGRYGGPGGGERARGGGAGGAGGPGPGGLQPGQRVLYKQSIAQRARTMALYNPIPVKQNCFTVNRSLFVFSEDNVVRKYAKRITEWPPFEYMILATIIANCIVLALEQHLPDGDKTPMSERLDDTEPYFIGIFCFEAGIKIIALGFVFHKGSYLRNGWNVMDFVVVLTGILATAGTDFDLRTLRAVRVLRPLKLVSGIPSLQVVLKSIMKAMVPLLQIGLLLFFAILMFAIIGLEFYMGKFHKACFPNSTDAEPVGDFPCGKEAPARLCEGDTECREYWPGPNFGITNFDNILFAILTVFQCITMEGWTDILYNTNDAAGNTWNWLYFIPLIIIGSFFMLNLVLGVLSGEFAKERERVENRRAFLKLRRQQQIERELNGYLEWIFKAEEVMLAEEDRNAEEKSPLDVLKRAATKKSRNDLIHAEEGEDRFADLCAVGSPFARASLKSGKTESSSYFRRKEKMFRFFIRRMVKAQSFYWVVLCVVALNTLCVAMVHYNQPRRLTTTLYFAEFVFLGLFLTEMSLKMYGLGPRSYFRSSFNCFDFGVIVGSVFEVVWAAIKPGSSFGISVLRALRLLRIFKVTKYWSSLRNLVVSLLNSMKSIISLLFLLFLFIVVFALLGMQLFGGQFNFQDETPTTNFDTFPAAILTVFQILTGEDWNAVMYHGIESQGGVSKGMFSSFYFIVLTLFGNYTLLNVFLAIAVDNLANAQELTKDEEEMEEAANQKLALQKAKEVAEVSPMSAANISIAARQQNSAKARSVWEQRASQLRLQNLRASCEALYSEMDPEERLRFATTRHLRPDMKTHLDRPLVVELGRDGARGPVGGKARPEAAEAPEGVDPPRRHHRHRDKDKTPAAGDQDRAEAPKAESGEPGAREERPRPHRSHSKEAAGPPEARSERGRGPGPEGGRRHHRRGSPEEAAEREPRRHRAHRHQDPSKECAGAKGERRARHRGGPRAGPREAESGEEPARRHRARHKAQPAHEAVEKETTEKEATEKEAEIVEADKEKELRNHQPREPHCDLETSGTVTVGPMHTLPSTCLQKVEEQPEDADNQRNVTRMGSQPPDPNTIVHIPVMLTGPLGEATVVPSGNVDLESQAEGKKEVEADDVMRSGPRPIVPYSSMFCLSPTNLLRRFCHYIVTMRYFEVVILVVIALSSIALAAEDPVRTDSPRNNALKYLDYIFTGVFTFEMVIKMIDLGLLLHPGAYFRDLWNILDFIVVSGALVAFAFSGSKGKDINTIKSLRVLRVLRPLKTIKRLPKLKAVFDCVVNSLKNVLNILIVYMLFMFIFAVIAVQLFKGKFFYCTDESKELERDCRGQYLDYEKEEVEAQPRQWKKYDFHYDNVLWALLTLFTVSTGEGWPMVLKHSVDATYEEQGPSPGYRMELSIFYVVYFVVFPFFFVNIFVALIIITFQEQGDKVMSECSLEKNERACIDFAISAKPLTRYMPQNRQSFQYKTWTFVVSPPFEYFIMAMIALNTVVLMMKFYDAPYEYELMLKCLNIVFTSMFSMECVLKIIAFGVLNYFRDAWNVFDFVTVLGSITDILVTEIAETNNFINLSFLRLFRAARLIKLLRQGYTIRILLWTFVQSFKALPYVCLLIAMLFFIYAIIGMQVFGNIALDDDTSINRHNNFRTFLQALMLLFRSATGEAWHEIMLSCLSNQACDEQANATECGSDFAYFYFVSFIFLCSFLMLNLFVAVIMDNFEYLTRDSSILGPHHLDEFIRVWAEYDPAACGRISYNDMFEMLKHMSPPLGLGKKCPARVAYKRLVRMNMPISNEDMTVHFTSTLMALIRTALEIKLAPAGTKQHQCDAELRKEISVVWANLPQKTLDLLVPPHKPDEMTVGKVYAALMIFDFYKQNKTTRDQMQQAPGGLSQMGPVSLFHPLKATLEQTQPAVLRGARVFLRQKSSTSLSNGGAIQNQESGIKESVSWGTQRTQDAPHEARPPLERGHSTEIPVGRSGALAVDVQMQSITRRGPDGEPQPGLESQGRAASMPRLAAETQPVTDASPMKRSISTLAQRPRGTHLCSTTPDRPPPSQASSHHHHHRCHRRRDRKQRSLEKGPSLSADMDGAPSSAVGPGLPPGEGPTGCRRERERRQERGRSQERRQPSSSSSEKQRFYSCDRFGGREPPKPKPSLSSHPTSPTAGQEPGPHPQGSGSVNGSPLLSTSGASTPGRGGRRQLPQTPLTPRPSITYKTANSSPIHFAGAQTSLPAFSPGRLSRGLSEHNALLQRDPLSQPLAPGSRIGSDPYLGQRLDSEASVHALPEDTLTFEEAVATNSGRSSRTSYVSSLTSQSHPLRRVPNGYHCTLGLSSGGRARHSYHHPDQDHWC
Sequence,Inhibition of the N-type calcium channel (N-type calcium channel),Neuroprotection (infarct size) [1]
YGRKKRRQRRR [Tat],sufficient to induce the observed inhibition,–
"YGRKKRRQRRRKLSSIESDV [Tat-NR2B9c, known neuroprotective peptide]",–,neuroprotective as seen by a reduced infarct size
